Experimental data reported in US20230159661A1 (ICHNOS SCIENCES, published 2023).

T1: Cynomolgus EGFR-IV_580-638 (cynomolgus)
T1 chain: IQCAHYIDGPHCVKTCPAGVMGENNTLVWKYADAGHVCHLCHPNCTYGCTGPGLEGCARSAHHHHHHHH

T2: hEGFR-IV_580-638 (human)
T2 construct: PCR amplified from the His-tagged hEGFR construct; purified on Ni sepharose
T2 chain: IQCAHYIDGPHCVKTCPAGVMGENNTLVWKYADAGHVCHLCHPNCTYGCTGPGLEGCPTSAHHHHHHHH

T3: Cynomolgus EGFR-IV_556-638 (cynomolgus)
T3 chain: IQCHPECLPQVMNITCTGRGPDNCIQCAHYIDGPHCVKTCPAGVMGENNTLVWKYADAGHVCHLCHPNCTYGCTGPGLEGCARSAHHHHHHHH

T4: hEGFR-IV_556-638 (human)
T4 construct: PCR amplified from the His-tagged hEGFR construct; purified on Ni sepharose
T4 chain: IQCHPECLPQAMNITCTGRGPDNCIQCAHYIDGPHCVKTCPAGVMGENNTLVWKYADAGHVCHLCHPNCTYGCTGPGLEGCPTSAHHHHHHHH


Experiments:
[1] = target: T1, Cynomolgus EGFR-IV_580-638; assay: SPR, antibody captured on Protein G
Experimental: (§1) Measurements were performed on a Biacore 2000 instrument (GE). […] Various human and cynomolgus EGFR constructs were injected as analyte at a concentration of 200 nM at a flow rate of 30 μl/min in HBS-EP buffer. Dissociation time was 4 min. After each binding event, the surface was regenerated with 10 μl of glycine buffer pH 1.5. To verify the integrity of the EGFR domain IV constructs, a polyclonal goat anti-EGFR known to us to contain at least one anti EGFR domain IV binder (AF231, Bio-Techne AG, Zug, Switzerland) was immobilized as described above and human and cynomolgus EGFR constructs were injected as described above.

[2] = target: T2, hEGFR-IV_580-638; assay: SPR, antibody captured on Protein G
Experimental: as §1

[3] = target: T3, Cynomolgus EGFR-IV_556-638; assay: SPR, chimeric antibody captured on Protein G, analyte 200 nM
Experimental: as §1

[4] = target: T4, hEGFR-IV_556-638; assay: as above
Experimental: as §1

[5] = target: T5, hEGFR-I-II-III_hErbB3-IV (human); assay: ELISA, coated antigen 2 ug/ml
T5 construct: also called chimeric EGFR I-III Her3 IV molecule; EGFR-Her3 chimeric molecule (B)
Experimental: Supernatants from both subclones were harvested and purified using a LC-kappa mouse affinity matrix (Life technologies), according to the manufacturer's instructions. These purified antibodies were tested by ELISA on 96-well plates coated with either soluble human EGFR or recombinant EGFR-Her3 chimeric constructs. These molecules were diluted at 2 ug/ml in PBS and immobilized overnight at 4° C. on a high binding 96-well plates. […] As a control, Panitumumab (Vectibix®) was used at the same concentrations. […] Following this incubation, the plates were washed and incubated with 100 ul of TMB substrate. The reaction was stopped by adding 100 μl of H₂SO₄ 2N and the absorbance was read at 450 nm on a Synergy HT2 spectrophotometer (Biotek, USA; distributor: WITTEC AG, Littau, Switzerland).

[6] = target: T6, CD3 on human T cells (PBMCs) (human, UniProt P07766 23-207); assay: flow cytometry on PBMCs, CD4+ T cells, anti-human IgG Fc-PE
T6 construct: whole, on cells; also called CD3ε; CD4+ T cells
T6 sequence (P07766 23-207): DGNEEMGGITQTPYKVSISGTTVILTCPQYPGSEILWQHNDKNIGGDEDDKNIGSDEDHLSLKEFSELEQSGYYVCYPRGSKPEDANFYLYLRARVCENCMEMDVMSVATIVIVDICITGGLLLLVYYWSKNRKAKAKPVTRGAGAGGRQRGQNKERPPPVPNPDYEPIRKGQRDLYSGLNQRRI
Experimental: (§2) FACS simple binding was performed using PBMCs (to assess binding to CD3) or NCI-H1703 squamous cancer cells (to assess binding to EGFR). Cells were resuspended at 10⁶ cells/ml in FACS buffer (1×PBS+10% Versene+2% FBS), and 100 ul were added to U-bottom 96-well plates which were then centrifuged at 350 g for 3 min. […] The cells were washed in FACS buffer and stained with the following antibodies (ThermoFisher): anti-human CD4 PE-eF610 (1/100), anti-human CD8a APC (1/100) and anti-human IgG (Fc-gamma specific) PE (1/200) for 20 min 4° C. Cells were washed with FACS buffer and resuspended in FACS buffer containing Sytox green viability dye (1/200), for 20 min at 4° C. and acquired on a CytoFlex (Beckman Coulter).
(§3) For the PBMCs, the cells were also labelled with anti-CD4 or anti-CD8 antibodies.

[7] = target: T7, human EGFR soluble extracellular region with C-terminal poly-histidine tag (hEGFR) (human, UniProt P00533 25-638); assay: dual binding ELISA, coated human EGFR, detection with huCD3-biotin and streptavidin-HRP
T7 construct: also called human EGFR His-tagged protein; soluble human EGFR

[8] = target: T6, CD3 on human T cells (PBMCs); assay: flow cytometry on PBMCs, CD8+ T cells, anti-human IgG Fc-PE
Experimental: as §2, §3

[9] = target: T7, human EGFR soluble extracellular region …; assay: ELISA, single EGFR binding, coated huEGFR-His, anti-human IgG Fab-HRP
[10] = target: T8, membrane-bound human EGFR receptor expressed on cells (human, UniProt P00533 25-1210); assay: flow cytometry on NCI-H1703 squamous cancer cells, anti-human IgG Fc-PE
T8 construct: whole, on cells; the construct transfected into BAF cells is not described; also called EGFR-transfected BAF cells
Experimental: as §2, §3

[11] = target: T6, CD3 on human T cells (PBMCs); assay: flow cytometry on PBMCs, T cells, anti-human IgG Fc-PE
Experimental: as §2, §3

| Binder | binding result [1] | binding result [2] | binding result [3] | binding result [4] | binding result [5] | other results |
| --- | --- | --- | --- | --- | --- | --- |
| 10E6 mouse hybridoma antibody (subclone 10E6F5) (antibody, V domains shown, Tested as mouse IgG (kappa) from hybridoma: supernatant of the parental clone 10E6, purified antibody of the subclone 10E6F5; also called 10E6 hybridoma candidate) VH: DVQLQESGPGRVKPSQSLSLTCTVTGYSLTSDYAWSWIRQFPGNRLEWMVYITYSGITTYNPSLKSRISITRDTSKNQFFLQLNSVTTEDTATYYCAGGDYGLSSWFAYWGQGTLVTVSS VL: DIVLTQSPVTLSVTPGDRVSLSCRASQSISNYLHWYQQKSHESPRLLIKYASQSISGIPSRFSGSGSGTDFTLSINSVETEDFGMYFCQQSNNWPYTFGGGTKLEIK |  |  |  |  | no binding (tested: 10 to 0.01 µg/ml) |  |
| 3A6 mouse hybridoma antibody (subclone 3A6A12B5) (antibody, V domains shown, Tested as mouse IgG (kappa) from hybridoma: supernatant of the parental clone 3A6, purified antibody of the subclone 3A6A12B5; also called 3A6A12F5; 3A6 hybridoma candidate) VH: QVQLKQSGPGLVQPSQSLSITCTVSGFSLTSYGVHWVRQSPGKGLEWLGVIWSGGTTDYNAAFISRLSISQDNSKSQVFFKMNSLQANDTAIYYCAGNQGRTVRPTWFAYWGQGTLVTVSS VL: DILLTQSPAILSVSPGERVSFSCRASQSIGTSIHWYQQRANGSPRLLIKYASESISGIPSRFSGSGSGTDFTLSINSVESEDIAHYYCQQNSNWPLTFGAGTKLELK |  |  |  |  | no binding (tested: 10 to 0.01 µg/ml) |  |
| CD3×EGFR_SF3 (bispecific antibody, human IgG1, kappa, L234A L235A, Batches AE042, P1069, P1027, TRS) chain 1: EVQLVESGGGLVQPGGSLRLSCAASGFTFNTYAMNWVRQAPGKGLEWVARIRSKYNNYATYYADSVKSRFTISRDDSKNTLYLQMNSLRAEDTAVYYCVRHGNFGNSYVSYFAYWGQGTTVTVSSGGGGSGGGGSGGGGSEIVVTQSPATLSVSPGERATLSCRSSTGAVTESNYANWVQEKPGQAFRGLIGGANKRAPGVPARFSGSLSGDEATLTISSLQSEDFAVYYCALFYSNTWVFGQGTKLEIKGGGGTQVQLQESGPGLVKPSETLSLTCTVSGGSVSSGDYYWTWIRQSPGKGLEWIGHIYYSGNTNYNPSLKSRLTISIDTSKTQFSLKLSSVTAADTAIYYCVRDRVTGAFDIWGQGTMVTVSSASTKGPSVFPLAPSSKSTSGGTAALGCLVKDYFPEPVTVSWNSGALTSGVHTFPAVLQSSGLYSLSSVVTVPSSSLGTQTYICNVNHKPSNTKVDKKVEPKSCDKTHTCPPCPAPEAAGGPSVFLFPPKPKDTLMISRTPEVTCVVVDVSHEDPEVQFKWYVDGVEVHNAKTKPREEQYNSTFRVVSVLTVLHQDWLNGKEYKCKVSNKALPAPIEKTISKTKGQPREPAVYTLPPSREEMTKNQVKLVCLVTGFYPSDIAVEWESSGQPENNYYTTPPMLDSDGSFSLVSWLNVDKSRWQQGNIFSCSVMHEALHNRFTQKSLSLSPG chain 2: not shown chain 3: DKTHTCPPCPAPEAAGGPSVFLFPPKPKDTLMISRTPEVTCVVVDVSHEDPEVKFNWYVDGVEVHNAKTKPREEQYNSTYRVVSVLTVLHQDWLNGKEYKCKVSNKALPAPIEKTISKAKGQPREPEVATFPPSRDELTKNQVTLVCLVTGFYPSDIAVEWESNGQPENNYKTDPPLLESDGSFALSSRLRVDKSRWQQGNVFSCSVMHEALHNHYTQKSLSLSPG |  |  |  |  |  | EC50 [6]: 6.05 µg/mL; EC50 [7]: 0.171 µg/mL; EC50 [8]: 3.91 µg/mL; EC50 [9]: 0.053 µg/mL; EC50 [10]: 0.182 µg/mL; EC50 [11]: 5.93 µg/mL |

The next lines start with results.

| binding result [1] | binding result [2] | binding result [3] | binding result [4] | binding result [5] | Binder | other results |
| --- | --- | --- | --- | --- | --- | --- |
| no binding (tested: 200 nM) | no binding (tested: 200 nM) | binds | binds |  | 10E6 chimeric antibody (antibody, human IgG1, kappa, V domains shown, Mouse-human chimeric IgG1 kappa; also called chimeric 10E6 antibody) VH: DVQLQESGPGRVKPSQSLSLTCTVTGYSLTSDYAWSWIRQFPGNRLEWMVYITYSGITTYNPSLKSRISITRDTSKNQFFLQLNSVTTEDTATYYCAGGDYGLSSWFAYWGQGTLVTVSS VL: DIVLTQSPVTLSVTPGDRVSLSCRASQSISNYLHWYQQKSHESPRLLIKYASQSISGIPSRFSGSGSGTDFTLSINSVETEDFGMYFCQQSNNWPYTFGGGTKLEIKR |  |
| no binding (tested: 200 nM) | no binding (tested: 200 nM) | binds | binds |  | 3A6 chimeric antibody (antibody, human IgG1, kappa, V domains shown, Mouse-human chimeric IgG1 kappa; also called chimeric 3A6 antibody) VH: QVQLKQSGPGLVQPSQSLSITCTVSGFSLTSYGVHWVRQSPGKGLEWLGVIWSGGTTDYNAAFISRLSISQDNSKSQVFFKMNSLQANDTAIYYCAGNQGRTVRPTWFAYWGQGTLVTVSS VL: DILLTQSPAILSVSPGERVSFSCRASQSIGTSIHWYQQRANGSPRLLIKYASESISGIPSRFSGSGSGTDFTLSINSVESEDIAHYYCQQNSNWPLTFGAGTKLELKR |  |
